How the values were obtained:
[1] = target: 14-3-3-FC complex (tobacco 14-3-3c saturated with fusicoccin) (Nicotiana tabacum (tobacco)) (UniProt P93343)
[2] = target: Tobacco 14-3-3c (Gene bank AAC49892, amino acids 1-260 with an N-terminal His-tag) (Nicotiana tabacum (tobacco)) (UniProt P93343); assay: ITC; peptide into unliganded 14-3-3c
[3] = target: 14-3-3-FC complex (tobacco 14-3-3c saturated with fusicoccin) (Nicotiana tabacum (tobacco)) (UniProt P93343); assay: ITC; peptide into the 14-3-3-FC complex
[4] = target: 14-3-3-FC complex (tobacco 14-3-3c saturated with fusicoccin) (Nicotiana tabacum (tobacco)) (UniProt P93343); assay: isothermal titration calorimetry, […]
[5] = target: Tobacco 14-3-3c (Gene bank AAC49892, amino acids 1-260 with an N-terminal His-tag) (Nicotiana tabacum (tobacco)) (UniProt P93343); assay: isothermal titration calorimetry, peptide titrated into 14-3-3c alone, 35 °C
[6] = target: Tobacco 14-3-3c (Gene bank AAC49892, amino acids 1-260 with an N-terminal His-tag) (Nicotiana tabacum (tobacco)) (UniProt P93343); assay: ITC; phosphopeptide (0.5 mM) titrated into 14-3-3c (0.05 mM), 25 mM HEPES pH 6.5, 35 °C, single-site fit; peptide to unliganded 14-3-3c, no fusicoccin; ITC, pH 6.5, 35 C
[7] = target: the molecule itself; assay: X-ray crystal structure (homodimer)
Description: Tobacco 14-3-3c (Gene bank AAC49892, amino acids 1-260 with an N-terminal His-tag) was expressed recombinantly in E.coli and purified via standard procedures. Fusicoccin was purchased from Sigma. Phosphopeptides were synthesized by Biosyntan (Berlin). […] They were soaked with ligands for 4 hours (fusicoccin) or 20 minutes (peptide) in precipitant solution supplemented to 30% PEG 400 and cryoprotectant (precipitant solution supplemented to 35% PEG 400, 8% Isopropanol) prior to freezing in liquid N₂.

## phosphopeptide Gln-Ser-Tyr-pThr-Val (QSYpTV), C-terminal end of PMA2, a H+-ATPase isoform from N. plumbaginifolia
[1]
  fold increase of binding affinity by fusicoccin: 93 fold
[2]
  -TΔS: 1.7 kcal/mol
  ΔH: -10 kcal/mol
[3]
  -TΔS: 0.4 kcal/mol
  ΔH: -11.8 kcal/mol
[4]
  Kd: 27 nM
  ΔG: -11.4 kcal/mol
[5]
  ΔG: -8.3 kcal/mol
[6]
  Kd: 2500 nM

B1: Tobacco 14-3-3c (Gene bank AAC49892, amino acids 1-260 with an N-terminal His-tag) (other)
chain: MAVAPTAREENVYMAKLAEQAERYEEMVEFMEKVSNSLGSEELTVEERNLLSVAYKNVIGARRASWRIISSIEQKEESRGNEEHVNSIREYRSKIENELSKICDGILKLLDAKLIPSAASGDSKVFYLKMKGDYHRYLAEFKTGAERKEAAESTLTAYKAAQDIATTELAPTHPIRLGLALNFSVFYYEILNSPDRACNLAKQAFDEAIAELDTLGEESYKDSTLIMQLLRDNLTLWTSDMQDDGADEIKEDPKPDEAKN
notes: Expressed in E. coli; one monomer in the asymmetric unit; also called plant 14-3-3c; Nicotiana tabacum 14-3-3 isoform c; not shown: N-terminal His-tag
[7]
  binding result: binds

Reference: patent publication US20070287629A1 (MAX PLANCK GESELLSCHAFT ZUR FOERDERUNG DER WISSENSCHAFTEN E …, published 2007)
